According to US5108916A, “Process for stereoselectively hydrolyzing, transesterifying or esterifying with immobilized isozyme of lipase from Candida rugosa” (priority 1989, dated 1992):

B1: Mucor miehei: Mucor miehei lipase (protein, UniProt P19515 95-363, looked up)
Lipase: SIDGGIRAATSQEINELTYYTTLSANSYCRTVIPGATWDCIHCDATEDLKIIKTWSTLIYDTNAMVARGDSEKTIYIVFRGSSSIRNWIADLTFVPVSYPPVSGTKVHKGFLDSYGEVQNELVATVLDQFKQYPSYKVAVTGHSLGGATALLCALDLYQREEGLSSSNLFLYTQGQPRVGDPAFANYVVSTGIPYRRTVNERDIVPHLPPAAFGFLHAGEEYWITDNSPETVQVCTSDLETSDCSNSIVPFTSVLDHLSYFGINTGLCT
B2: acetylcholinesterase of T. californica: acetylcholine esterase from Torpedo californica (protein, UniProt P04058 22-564, looked up)
Acetylcholinesterase: DDHSELLVNTKSGKVMGTRVPVLSSHISAFLGIPFAEPPVGNMRFRRPEPKKPWSGVWNASTYPNNCQQYVDEQFPGFSGSEMWNPNREMSEDCLYLNIWVPSPRPKSTTVMVWIYGGGFYSGSSTLDVYNGKYLAYTEEVVLVSLSYRVGAFGFLALHGSQEAPGNVGLLDQRMALQWVHDNIQFFGGDPKTVTIFGESAGGASVGMHILSPGSRDLFRRAILQSGSPNCPWASVSVAEGRRRAVELGRNLNCNLNSDEELIHCLREKKPQELIDVEWNVLPFDSIFRFSFVPVIDGEFFPTSLESMLNSGNFKKTQILLGVNKDEGSFFLLYGAPGFSKDSESKISREDFMSGVKLSVPHANDLGLDAVTLQYTDWMDDNNGIKNRDGLDDIVGDHNVICPLMHFVNKYTKFGNGTYLYFFNHRASNLVWPEWMGVIHGYEIEFVFGLPLVKELNYTAEEEALSRRIMHYWATFAKTGNPNEPHSQESKWPLFTTKEQKFIDLNTEPMKVHQRLRVQMCVFWNQFLPKLLNATACDGELSS

What was measured:
[1] = Hydrolysis of ketoprofen esters by lipases, acid by HPLC, ee via diastereomeric amides; assay type: biochemical
Method: To a solution of 9ml of 100mM ammonium phosphate (pH 5.5) in 50 ml Erlenmeyer flask a weighed amount of ester (either directly or dissolved in 200 ul DMF) was added. A solution of the weighed amount of enzyme in 1 ml of the same buffer was added. The mixture was agitated in a rotary shaker at 250 RPM at 35° C. typically for 22 hours. The reaction mixture was acidified with 8 drops 6(N) HCl to pH 1.5-2.0, extracted with CHCl3 (2×10 ml). The CHCl3 solution was analyzed by HPLC to determine the percent of acid produced in the hydrolysis.
The CHCl3 extract (5 ml) of the hydrolysis reaction was dried over anhydrous Na2 SO4 and filtered. The filtrate was cooled to 0° C. in stoppered vials and 100 ul of N-methylmorpholine, followed by 100 ul of isobutyl chloroformate were added. After gently shaking at 0° C. for 10 minutes, 100 ul of D-(+)-1-phenylethylamine was added and gently shaking at 0° C. was continued for 5 minutes. The reaction mixture was then shaken at room temperature for 5 minutes. The reaction mixture was washed with water (5 ml), 1(N) HCl (5 ml) and again with water (5 ml). The diastereomeric amides produced were then analyzed by HPLC on a column as specifically noted to determine the ee (%S-%R) of the acid produced by enzymatic hydrolysis of the esters.
Ketoprofen esters (50 mg) were hydrolyzed as above. HPLC analysis for the amount of acid produced for the ketoprofen monoglyceride and ketoprofen ethylene glycol ester hydrolysis were performed on Partisil 5 ODS-3 RAC column (9.4 mm×100 mm, Whatman) using CH3 OH: 10mM (NH4)H2 PO4 (60:40) at 4 ml/min and monitoring at 254 nm. HPLC analysis of the acid produced in the hydrolysis of the other esters were done on ODS-3 RAC column using CH3 OH: 10 mM (NH4)H2 PO4 (80:20) at 2ml/min and monitoring at 254 nm. The enantiomeric excess of the ketoprofen produced for each hydrolysis was determined by analysis of the amides by HPLC on ODS-3 RAC column using CH3 OH:10 mM (NH4)H2 PO4 (60:40) at 4 ml/min and monitoring at 254 nm. […]
To determine whether oleic acid could be used to enhance the rate/selectivity using other lipase and/or substrates, the following experiment was performed. 50 mg of either the diethylene glycol ester, triethylene glycol monomethyl ester, monoglyceride ester, or ethylene glycol ester was placed in 50 ml Erlenmeyer flasks. To this was added 50 mg of Lipase MY, 50 mg of the Mucor miehei lipase, 2.5 mg of the Candida cylindracea lipase (Biocatalyst), or 5 mg of lipase OF, all in 1 ml of buffer. 10 ul of pig liver esterase was also used. Oleic acid was added to the flasks at 200 ul. Buffer was added to a final volume of 10 ml, and the flasks were incubated at 35.C, 250 rpm, acidified, and extracted with CHCl3 and analyzed by HPLC as in Example 18.

[2] = Hydrolysis of R,S-HPPA methyl ester by free lipase or isozyme in aqueous buffer, R and S acids by HPLC; assay type: biochemical
Method: Lipase MY (Meito Sangyo), 340mg, 4g of R,S-HPPA methyl ester, and 200ml of 20mM KH2 PO4 (adjusted to pH 6.5) were mixed, with shaking, for 5.5 hours.
Analysis of the acid formed was carried out by extraction of the ester after adjustment of the aqueous solution to pH 6.5 (a slight pH drop occurs on hydrolysis) with CH2 Cl2 followed by adjusting the pH to 2 and extraction of the acid with ethyl acetate. The solution was evaporated to dryness, taken up in water and analyzed by HPLC with a Macherey Nagel-Duren Resolvosil BSA- column using 5% n-propanol, 10mM KH2 PO4, pH 5 at 2.7ml/min with detection at 220nm. At that time 35% of the R, S-ester was converted to the acid. The ratio of R and S acids was 94% R and 6% S.
Lipase MY (Meito Sangyo), Candida lipase B (Biocatalyst, Ltd), lipase OF (Meito Sangyo), and Lipase AY (Amano) were compared for stereoselectivity for production of R-HPPA from R,S-HPPA methyl ester. The preparations, in amounts shown in Table I, were added to 50 ml of 20 mM HPPA methyl ester in 50 mM KH2 PO4 pH 6.5. […] The ratio of R to S acid was determined by HPLC as described in Example 3 at approximately 16% hydrolysis of the ester.
Two hundred mls of KH2 PO4 (pH 6.5) was combined with 400 mg HPPA-Me and 500 units of T. californica acetylcholine esterase. The reaction mixture was shaken for 24 hours and then sampled and analyzed as in Example 3. […]

[3] = diethylene glycol ester, enzyme alone
[4] = ethylene glycol ester, + oleic acid
[5] = ethylene glycol ester, enzyme alone
[6] = monoglyceride ester, + oleic acid
[7] = monoglyceride ester, enzyme alone
[8] = monomethyl triethylene glycol ester, + oleic acid
[9] = monomethyl triethylene glycol ester, enzyme alone

Molecule | % ee (R = R-acid) ([1]; diethylene glycol ester, + oleic acid) | % Acid ([1]; diethylene glycol ester, + oleic acid 200 ul) | % Acid [1, 3] | % ee (R = R-acid) [1, 3] | % Acid [1, 4] | % ee (R = R-acid) [1, 4] | % Acid [1, 5] | % ee (R = R-acid) [1, 5] | % Acid [1, 6] | % ee (R = R-acid) [1, 6] | % Acid [1, 7] | % ee (R = R-acid) [1, 7] | % Acid [1, 8] | % ee (R = R-acid) [1, 8] | % Acid [1, 9] | % ee (R = R-acid) [1, 9] | stereoselective hydrolysis of HPPA-Me to R-HPPA [2] | hydrolyzing activity on HPPA-Me ([2]; 500 units, 400 mg HPPA-Me, pH 6.5, 24 hours)
B1 | 2R | 20% | 24% | 41R | 10% | 42R | 17% | 54R | 4% | 35R | 20% | 40R | 6% | 1R | 26% | 36R | – | –
B2 | – | – | – | – | – | – | – | – | – | – | – | – | – | – | – | – | did not stereoselectively hydrolyze | Very little hydrolyzing activity
